This is an account of results in patent US8029979B2, “Method for determining the substrate specificity of an enzyme” (JPT Peptide Technologies GmbH, priority 2001, dated 2011).

The test addresses T1, protein kinase A (Bos taurus, UniProt P00517).
T1 construct: purchased Sigma P26452 as printed
The experiment in a line: Incubation of various modified surfaces (glass, cellulose, polypropylene) with protein kinase A (FIG. 2, Example 30). The test is classed as biochemical. The conditions noted are these: protein kinase A 2 U/mL, 30 minutes at 25° C. The procedure:
FIG. 2. The peptide Leu-Arg-Arg-Ala-Ser-Leu-Gly-NH2 and the control peptide […], each modified at the N-terminus with the dipeptide cysteinyl-β-alanine, were coupled to a maleinimido-functionalised surface by a Michael addition (Example 1; maleinimidobutyryl-β-alanine-functionalised cellulose as well as maleinimidobutyryl-β-alanine-functionalised, modified polypropylene membranes). The surfaces thus modified were first pre-incubated for 10 minutes using 10 mL of 100 μM ATP solution in 50 mM of sodium phosphate buffer pH 7.5. […] (Example 30). The phosphorylation of the corresponding peptides was detected using a FUJIFILM PhosphorImager. The signal intensity of the respective spot is given below the figures. […] In the case of the modified glass surfaces, however, the signal for the substrate amino acid sequence is a factor of 4-5 larger than the signal for the corresponding control amino acid sequence. […]
After drying the glass surface the quantity of radioactive phosphate incorporated in the glass-surface-bound peptides was determined using a PhosphorImager system (FLA-3000, FUJIFILM) (see FIG. 2).

BA1 = not defined here

Take “Cys-BA1-Leu-Arg-Arg-Ala-Ser-Leu-Gly-NH2 ({Cys-BA1}-LRRASLG-NH2; reading uncertain; also: printed as Cys-BA1-Leu-Arg-Arg-Ala-Ser-Leu-Gly-NH2) [compound 85]”: where the note is “modified cellulose or polypropylene surfaces”, the “kinase-mediated phosphorylation signal on porous surfaces” value is listed as “only non-specific binding of ATP or kinase to the peptides is measured”. Further, where the note is “modified glass surfaces”, the “signal for the substrate amino acid sequence larger than the signal for the corresponding control amino acid sequence” value was 4-5 factor.
